Data reported in US20160311918A1, “Anti-Ron Monoclonal Antibodies as a Cytotoxic Drug Delivery System for Targeted Cancer Therapy” (TEXAS TECH UNIVERSITY SYSTEM, priority 2013, published 2016).

What was measured:
[1] = test system: human pancreatic cancer cells; assay: PDAC cell viability in combination with chemotherapeutics; format: cell-based; settings: in vitro, chemotherapeutics including gemcitabine
Procedure: In vitro cell viability and death assays: Cell viability after treatment of Zt/g4-DM1, chemotherapeutics, and their combinations was determined by the MTT assay. Cell death was determined by the trypan blue exclusion assay.
FIGS. 10A to 10D are graphs that show the effect of Zt/g4-DM1 on pancreatic cancer cell cycle, viability, and apoptotic death. […] FIG. 12 are graphs that show synergism between Zt/g4-DM1 and chemotherapeutics by isobolograms.

[2] = Acute toxicity in Balb/c mice; format: in vivo, mouse
Procedure: FIGS. 6A to 6C show the toxicity of Zt/g4-DM1 in vivo. Body weight was measured every four days during the period of Zt/g4-DM1 treatment. FIG. 6A: Effect of multiple doses of Zt/g4-DM1 on mouse body weight was determined by administration of Zt/g4-DM1 at 1, 3, 7, 10, 15 mg/kg every four day with a total of 5 injections. Mice were weighed and monitored for a total of 31 days. FIG. 6B: Effect of a single dose of Zt/g4 at 20 mg/kg on mouse body weight was determined using mice bearing HT29, HCT116, or SW620-derived tumors. Body weight was monitored up to 28 days. FIG. 6C: Effect of high doses of Zt/G4-DM1 on mouse body weight was analyzed by tail vein injection at 20, 40 and 60 mg/kg to Balb/c mice. Mice were euthanized at day 21. In all cases, the average body weight of mice before Zt/g4-DM1 injection was 19.8±3.6 grams (5 mice per group) and set as 100%;
In vivo toxicity studies: Acute toxicity with maximum tolerated dose was determined in Balb/C mice (four mice per dose) by a single tail vein injection of Zt/g4-DM1 at 20, 40, and 60 mg/kg body weight. Toxicity associated with different therapeutic doses was evaluated in athymic nude mice bearing HT29 tumor xenograft (five mice per dose). […] Toxicity was assessed by observing mouse behavior, weight loss, and survival.
Toxic effect of Zt/g4-DM1 on mice. Three studies using two different types of mice were performed to study Zt/g4-DM1 on animal behavior and body weight. The first study addressed the impact of multi-doses of Zt/g4-DM1. Athymic nude mice were injected five times with 1, 3, […], 7, 10, 15 mg/kg of Zt/g4-DM1 and monitored every four days for a total period of 31 days. […] The second study observed the effect of a single dose of Zt/g4-DM1 at 20 mg/kg in nude mice bearing tumors derived from HT29, HCT116, and SW620 cells. […] The third study involved a single-dose injection of Zt/g4-DM1 at 20, 40, and 60 mg/kg in Balb/c mice monitored for 24 days (FIG. 6C). […] Also, a moderate reduction of about 6% body weight was observed within the first four days after 60 mg/kg Zt/g4-DM1 injection. Although the average body weight from this group of mice slowly recovered during the observation period, the overall average remained lower than that of control mice with a 19% difference compared to that of control mice at day 24. Thus, Zt/g4-DM1 at the multiple-dose regimen appeared to be well tolerated.

[3] = molecular target: RON (Homo sapiens, UniProt Q04912); assay: Immunofluorescent localization of cytoplasmic RON in HT29 cells; format: cell-based; settings: 5 μg/ml, 6 h
[4] = test system: HCT116-luc2 xenograft tumor; assay: HCT116-luc2 mouse xenograft tumor model; format: in vivo; settings: single dose 20 mg/kg
Procedure: (§1) Athymic nude mice (five mice per group) were subcutaneously inoculated with 5×10^6 HCT116, HT29, and SW620 cells followed by injection of 20 mg/kg Zt/g4-DM1 through tail vein. FIG. 4A: Tumor growth from HT29-luc2 or HCT116-luc2 cells was determined by measuring average photon intensity (left panel). SW620-derived tumor growth was monitored by measuring tumor volume (FIG. 4B) (right panel). FIG. 4C: Tumor images with photon emission or caliper measurement at day 16 are presented. The scale from minimal to maximal is set at 300 to 35,000 photons per second. The percentages of inhibition were calculated from the average photon emission (for HT29 and HCT116 cells) or tumor volume (for SW620 cells). […] The percentages of inhibition were calculated by a formula: (average tumor weight from Zt/g4-DM1 treated group/average tumor weight from control mice)×100%;
(§2) Mouse xenograft CRC model and anti-RON ADC treatment: All mice studies were approved by the institutional animal care committee. […] Bioluminescence from individual tumors was measured every four days using Caliper IVIS image system (PerkinElmer). Tumor volumes from SW620-derived tumors were measured according to a formula: V=pi/6×1.58×(length×width)^3/2 (18,33). […]
(§3) The inventors first determined the efficacy of a single dose of Zt/g4-DM1 at 20 mg/kg body weight on tumors derived from HCT116, HT29, and SW620 cells. […]

[5] = test system: CRC cell-mediated tumor growth; assay: Mouse xenograft CRC models, single dose, all three lines; format: in vivo; settings: single dose 20 mg/kg
Procedure: Mouse xenograft CRC model and anti-RON ADC treatment: All mice studies were approved by the institutional animal care committee. Female athymic nude mice at 6 weeks of age (Taconic, Cranbury, N.J.) were injected with 5×10^6 HT29-Luc2, HCT116-luc2, or SW620 cells in the subcutaneous space of the right flank as previously described (18,33). Mice were randomized into different groups (five mice per group). […] The single-dose group received a tail vein injection of 20 mg/kg Zt/g4-DM1 in 0.1 ml PBS followed by observation for 28 days. The multi-dose study was performed by treating mice with Zt/g4-DM1 at 1, 3, 7, 10, and 15 mg/kg every four days for a total of five injections. Bioluminescence from individual tumors was measured every four days using Caliper IVIS image system (PerkinElmer). Tumor volumes from SW620-derived tumors were measured according to a formula: V=pi/6×1.58×(length×width)^3/2 (18,33). Animals were euthanized when tumor volumes exceeded 2000 mm^3 or if tumors became necrotic or ulcerated through the skin.
The inventors first determined the efficacy of a single dose of Zt/g4-DM1 at 20 mg/kg body weight on tumors derived from HCT116, HT29, and SW620 cells. Tumor growth by HCT116-luc2 and HT29-luc2 cells was measured by bioluminescence emitted from tumor cells. SW620-mediated tumors were evaluated by tumor volume (18,34). […]

[6] = test system: SW620-derived tumors; assay: SW620 mouse xenograft tumor model; format: in vivo; settings: single dose 20 mg/kg
Procedure: as §1, §2, §3

Sequence of RON (Q04912 310-1400 limits assumed): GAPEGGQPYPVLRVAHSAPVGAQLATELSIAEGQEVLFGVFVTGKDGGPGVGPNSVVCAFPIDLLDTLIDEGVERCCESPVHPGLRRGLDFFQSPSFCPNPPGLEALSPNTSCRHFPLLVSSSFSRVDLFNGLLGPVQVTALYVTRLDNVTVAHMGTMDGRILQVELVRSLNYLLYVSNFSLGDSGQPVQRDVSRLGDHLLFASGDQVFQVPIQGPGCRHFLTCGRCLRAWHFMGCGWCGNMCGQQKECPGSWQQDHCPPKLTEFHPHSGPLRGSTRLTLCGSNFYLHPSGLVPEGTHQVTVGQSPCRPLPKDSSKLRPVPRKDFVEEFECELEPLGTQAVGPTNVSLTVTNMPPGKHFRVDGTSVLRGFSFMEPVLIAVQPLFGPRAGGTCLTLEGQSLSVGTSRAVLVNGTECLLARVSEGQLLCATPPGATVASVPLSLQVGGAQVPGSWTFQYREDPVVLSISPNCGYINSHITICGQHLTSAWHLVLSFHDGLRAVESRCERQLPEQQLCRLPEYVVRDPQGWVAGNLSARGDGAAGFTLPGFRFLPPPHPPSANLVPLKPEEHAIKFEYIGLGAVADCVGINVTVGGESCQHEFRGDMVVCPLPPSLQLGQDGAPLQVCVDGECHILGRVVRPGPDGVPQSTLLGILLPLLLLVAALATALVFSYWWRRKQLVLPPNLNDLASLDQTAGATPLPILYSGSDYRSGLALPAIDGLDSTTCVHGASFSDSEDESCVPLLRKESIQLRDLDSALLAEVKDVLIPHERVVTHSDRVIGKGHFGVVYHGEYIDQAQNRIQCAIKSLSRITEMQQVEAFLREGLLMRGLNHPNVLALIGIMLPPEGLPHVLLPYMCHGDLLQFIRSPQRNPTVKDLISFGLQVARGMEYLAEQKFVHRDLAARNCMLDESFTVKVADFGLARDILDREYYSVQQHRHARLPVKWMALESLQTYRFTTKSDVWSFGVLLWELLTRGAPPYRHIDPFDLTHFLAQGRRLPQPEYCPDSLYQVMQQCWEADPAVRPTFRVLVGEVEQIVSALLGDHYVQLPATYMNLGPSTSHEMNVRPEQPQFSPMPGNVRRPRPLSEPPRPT
Sequence of RON (Q04912 25-304 limits assumed): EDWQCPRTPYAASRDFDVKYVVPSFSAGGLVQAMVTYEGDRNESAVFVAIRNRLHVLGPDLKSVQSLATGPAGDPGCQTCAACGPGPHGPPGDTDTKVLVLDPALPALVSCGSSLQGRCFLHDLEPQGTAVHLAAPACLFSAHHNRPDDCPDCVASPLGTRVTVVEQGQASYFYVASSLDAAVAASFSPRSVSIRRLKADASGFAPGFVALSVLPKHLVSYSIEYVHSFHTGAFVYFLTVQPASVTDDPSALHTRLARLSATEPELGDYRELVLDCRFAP

B1: Zt/g4-DM1: anti-RON mouse mAb Zt/g4 conjugated to maytansinoid DM1 via non-reducible thioether linkage (SMCC), DAR about 4:1 (conjugate)
VH: EVQLQQSGAELVKPGASVKLSCTTSGFNIIDTYIHWVNQKPDQGLEWIGRIDPADGNRKSDPKFQVKATITVDTSSNTAYLQLSSLTSGDTAVYYCARGYGNLNAMDSWGQGTSVTVSS
VL: DIQMNQSPSSLSASLGDTITITCHASQNINVWLNWYQQKPGNIPKLLIYKASNLHTGVPSRFSGSGSGTGFTLTISSLQPEDIATYYCQQGQSYPLTFGGGTKLEIK
combination effect with chemotherapeutics on PDAC cell viability [1]: synergistic effect | average reduction in mouse body weight ([2]; 60 mg/kg): 12% | toxic effect on mouse behavior or body weight ([2]; doses up to 40 mg/kg): no toxic effect on mouse behavior or body weight | distress ([2]; single dose 60 mg/kg, Balb/c mice): Moderate distress | body weight difference compared to control mice ([2]; single dose 60 mg/kg, day 24): 19% | reduction of body weight ([2]; single dose 60 mg/kg, within the first four days): about 6% | RON endocytosis by immunofluorescence [3]: intracellular localization of internalized RON occurred at 37 °C | inhibition by average bioluminescence intensity ([4]; day 16): More than 95% | inhibition rate by average tumor weight ([4]; day 28): 58.0% | duration of tumor growth delay [5]: up to 20 days | duration of efficacy without signs of tumor regrowth ([5]; day 4 to day 16): up to 12 days | inhibition in tumor volume ([6]; day 16): 82% | inhibition rate by average tumor weight ([6]; day 28): 61.9%
